Experimental data from US20240209029A1, “ADIPONECTIN GLYCOPEPTIDES AND COMPOSITIONS AND METHODS OF USE THEREOF” (The University of Hong Kong, priority 2021, published 2024).

Test system: MDA-MB-231 cells
Assay: Cancer cell proliferative assay (anti-proliferative activity, manual cell counting)
Type: cell-based, human
Protocol: FIGS. 3A-3B are bar graphs showing the Emax (FIG. 3A) and EC50 (FIG. 3B) of adiponectin or peptides with no glycans (hAdn-WM), or mono-, di-, tri- and tetra-glycans. The glyACD and adiponectin elicit synergistic anti-proliferative activity in human MDA-MB-231 cells. After serum starvation for 24 hours, MDA-MB-231 cells were treated with different concentrations of hAdn-WM, glyACD, full-length human adiponectin, or their combinations. After incubation for another 24 hours, cells were harvested for manual counting. FIG. 3C is a graph showing the inhibition rate on MDA-MB-231 cells of the indicated peptides. MDA-MB-231 cells were treated with different concentrations of adiponectin in the absence or presence of low (2.5 μg/ml) or high (20 μg/ml) doses of hAdn-WM or hAdn-WM656877101. FIG. 3D is a heatmap showing the percentage inhibition on cell growth. MDA-MB-231 cells were treated with 0, 0.22, 0.33, 0.49, 0.74, 1.11, 1.67, 2.5 μg/ml adiponectin in combination with 0, 0.3125, 0.625, 1.25, 2.5, 5, 10, 20 μg/ml hAdn-WM or hAdn-WM656877101. The percentage inhibition on cell growth was calculated and indicated by different intensity of the blue color. Data are presented as mean±SEM (n=6). *, P<0.05 vs full-length human adiponectin; ♦, P<0.05 vs peptide with no glycans (hAdn-WM); ▴, P<0.05 vs peptide with tetra-glycans (hAdn-WM656877101).
MDA-MB-231 cells were cultured in DMEM supplemented with 10% FBS and 1% penicillin-streptomycin-fungisone at 37° C. and under 5% CO2 95% humidified air. After harvesting, cells were seeded at a density of 3000 cells per well in 96-well plates and then cultured for 24 hours. After fasting in DMEM with 0.5% FBS for 24 hours, cells were subsequently stimulated with 2.5% FBS in the presence of peptides, human adiponectin or other drugs. The viable cell numbers at 24 hours at different doses were manually counted by mixing with trypan blue dye for analysis. The maximum inhibition rate (Emax) and half maximal effective concentration (EC50) were used to evaluate the anti-tumor activity of peptides and adiponectin. […]

[1] = 24 hours incubation, viable cells manually counted

- EC50 [1]: 0.33 ± 0.11 mg/L
B1: hAdiponectin: full-length human adiponectin, circulating glycoprotein hormone of 244 amino acids (SEQ ID NO:1) (protein, listed as Homo sapiens)
chain: MLLLGAVLLLLALPGHDQETTTQGPGVLLPLPKGACTGWMAGIPGHPGHNGAPGRDGRDGTPGEKGEKGDPGLIGPKGDIGETGVPGAEGPRGFPGIQGRKGEPGEGAYVYRSAFSVGLETYVTIPNMPIRFTKIFYNQQNHYDGSTGKFHCNIPGLYYFAYHITVYMKDVKVSLFKKDKAMLFTYDQYQENNVDQASGSVLLHLEVGDQVWLQVYGEGERNGLYADNDNDSTFTGFLLYHDTN
- Emax (%) maximum inhibition rate [1]: 69.3 ± 3.34%
- Emax of human adiponectin (adiponectin alone (absence of peptide), FIG. 3C): 66.7±4.29%
